From US20150344570A1 (published 2015)

T1: FcγRIIa R (human, UniProt P12318 34-217)
T1 construct: extracellular domain; also called FcgRIIa R type; 2aR
T1 sequence (looked up): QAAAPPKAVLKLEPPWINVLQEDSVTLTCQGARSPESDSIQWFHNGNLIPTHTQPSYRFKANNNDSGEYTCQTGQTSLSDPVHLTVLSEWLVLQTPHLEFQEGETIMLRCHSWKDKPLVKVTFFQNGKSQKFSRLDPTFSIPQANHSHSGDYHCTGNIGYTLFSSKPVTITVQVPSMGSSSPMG

T2: FcγRIIb (human, UniProt P31994 43-217)
T2 construct: extracellular domain; also called FcgRIIb; 2b
T2 sequence (looked up): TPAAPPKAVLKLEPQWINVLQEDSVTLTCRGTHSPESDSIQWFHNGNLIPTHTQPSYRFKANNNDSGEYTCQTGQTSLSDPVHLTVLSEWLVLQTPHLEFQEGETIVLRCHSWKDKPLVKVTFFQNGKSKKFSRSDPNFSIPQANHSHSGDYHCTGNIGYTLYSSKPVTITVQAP

B1: GpH7-A5/GpH7-B3 variant L328_11K/GpL16-k0 (antibody, human IgG1, kappa)
heavy 1: not shown
heavy 2: not shown
light: DIVMTQSPLSLPVTPGEPASISCQASESLVHSNRNTYLHWYLQKPGQSPQLLIYKVSNRFSGVPDRFSGSGSGTDFTLKISRVEAEDVGVYYCSQNTHVPPTFGQGTKVEIERTVAAPSVFIFPPSDEQLKSGTASVVCLLNNFYPREAKVQWKVDNALQSGNSQESVTEQDSKDSTYSLSSTLTLSKADYEKHKVYACEVTHQGLSSPVTKSFNRGEC
notes: He Ab; mutation in the GpH7-B3 chain only; also called He Ab
B2: GpH7-A5/GpH7-B3 variant L328_12R/GpL16-k0 (antibody, human IgG1, kappa)
heavy 1: not shown
heavy 2: not shown
light: B1 light
notes: as for B1
B3: GpH7-A5/GpH7-B3 variant E269_01G/GpL16-k0 (antibody, human IgG1, kappa)
heavy 1: not shown
heavy 2: not shown
light: B1 light
notes: heterodimerized anti-glypican-3 IgG1; alteration in one H chain only; also called He Ab
B4: GpH7-A5/GpH7-B3 variant H268_06M/GpL16-k0 (antibody, human IgG1, kappa)
heavy 1: not shown
heavy 2: not shown
light: B1 light
notes: as for B3
B5: GpH7-A5/GpH7-B3 variant E269_04F/GpL16-k0 (antibody, human IgG1, kappa)
heavy 1: not shown
heavy 2: not shown
light: B1 light
notes: as for B3
B6: GpH7-A5/GpH7-B3 variant E269_03V/GpL16-k0 (antibody, human IgG1, kappa)
heavy 1: not shown
heavy 2: not shown
light: B1 light
notes: as for B3
B7: GpH7-A5/GpH7-B3 variant E269_07I/GpL16-k0 (antibody, human IgG1, kappa)
heavy 1: not shown
heavy 2: not shown
light: B1 light
notes: as for B3
B8: GpH7-A5/GpH7-B3 variant D265_10E/GpL16-k0 (antibody, human IgG1, kappa)
heavy 1: not shown
heavy 2: not shown
light: B1 light
notes: as for B3
B9: GpH7-A5/GpH7-B3 variant D265_12R/GpL16-k0 (antibody, human IgG1, kappa)
heavy 1: not shown
heavy 2: not shown
light: B1 light
notes: as for B3
B10: GpH7-A5/GpH7-B3 variant E269_20W/GpL16-k0 (antibody, human IgG1, kappa)
heavy 1: not shown
heavy 2: not shown
light: B1 light
notes: as for B3
B11: GpH7-A5/GpH7-B3 variant P271_04F/GpL16-k0 (antibody, human IgG1, kappa)
heavy 1: not shown
heavy 2: not shown
light: B1 light
notes: as for B3
B12: GpH7-A5/GpH7-B3 variant D265_19Q/GpL16-k0 (antibody, human IgG1, kappa)
heavy 1: not shown
heavy 2: not shown
light: B1 light
notes: as for B3
B13: GpH7-A5/GpH7-B3 variant E269_18N/GpL16-k0 (antibody, human IgG1, kappa)
heavy 1: not shown
heavy 2: not shown
light: B1 light
notes: as for B3
B14: GpH7-A5/GpH7-B3 variant D265_18N/GpL16-k0 (antibody, human IgG1, kappa)
heavy 1: not shown
heavy 2: not shown
light: B1 light
notes: as for B3
B15: GpH7-A5/GpH7-B3 variant E269_19Q/GpL16-k0 (antibody, human IgG1, kappa)
heavy 1: not shown
heavy 2: not shown
light: B1 light
notes: as for B3
B16: GpH7-A5/GpH7-B3 variant E269_11K/GpL16-k0 (antibody, human IgG1, kappa)
heavy 1: not shown
heavy 2: not shown
light: B1 light
notes: as for B3
B17: GpH7-A5/GpH7-B3 variant D265_16H/GpL16-k0 (antibody, human IgG1, kappa)
heavy 1: not shown
heavy 2: not shown
light: B1 light
notes: as for B3
B18: GpH7-A5/GpH7-B3 variant E269_15Y/GpL16-k0 (antibody, human IgG1, kappa)
heavy 1: not shown
heavy 2: not shown
light: B1 light
notes: as for B3
B19: GpH7-A5/GpH7-B3 variant E269_12R/GpL16-k0 (antibody, human IgG1, kappa)
heavy 1: not shown
heavy 2: not shown
light: B1 light
notes: as for B3
B20: GpH7-A5/GpH7-B3 variant E269_02A/GpL16-k0 (antibody, human IgG1, kappa)
heavy 1: not shown
heavy 2: not shown
light: B1 light
notes: as for B3
B21: GpH7-A5/GpH7-B3 variant E269_16H/GpL16-k0 (antibody, human IgG1, kappa)
heavy 1: not shown
heavy 2: not shown
light: B1 light
notes: as for B3
B22: GpH7-A5/GpH7-B3 variant E269_14T/GpL16-k0 (antibody, human IgG1, kappa)
heavy 1: not shown
heavy 2: not shown
light: B1 light
notes: as for B3
B23: GpH7-A5/GpH7-B3 variant E269_13S/GpL16-k0 (antibody, human IgG1, kappa)
heavy 1: not shown
heavy 2: not shown
light: B1 light
notes: as for B3
B24: GpH7-A5/GpH7-B3 variant H268_11K/GpL16-k0 (antibody, human IgG1, kappa)
heavy 1: not shown
heavy 2: not shown
light: B1 light
notes: as for B3
B25: GpH7-A5/GpH7-B3 variant H268_08L/GpL16-k0 (antibody, human IgG1, kappa)
heavy 1: not shown
heavy 2: not shown
light: B1 light
notes: as for B3
B26: GpH7-A5/GpH7-B3 variant D265_14T/GpL16-k0 (antibody, human IgG1, kappa)
heavy 1: not shown
heavy 2: not shown
light: B1 light
notes: as for B3
B27: GpH7-A5/GpH7-B3 variant D265_11K/GpL16-k0 (antibody, human IgG1, kappa)
heavy 1: not shown
heavy 2: not shown
light: B1 light
notes: as for B3
B28: GpH7-A5/GpH7-B3 variant E269_08L/GpL16-k0 (antibody, human IgG1, kappa)
heavy 1: not shown
heavy 2: not shown
light: B1 light
notes: as for B3
B29: GpH7-A5/GpH7-B3 variant D265_13S/GpL16-k0 (antibody, human IgG1, kappa)
heavy 1: not shown
heavy 2: not shown
light: B1 light
notes: as for B3
B30: GpH7-A5/GpH7-B3 variant E269_06M/GpL16-k0 (antibody, human IgG1, kappa)
heavy 1: not shown
heavy 2: not shown
light: B1 light
notes: as for B3
B31: GpH7-A5/GpH7-B3 variant P271_15Y/GpL16-k0 (antibody, human IgG1, kappa)
heavy 1: not shown
heavy 2: not shown
light: B1 light
notes: as for B3
B32: GpH7-A5/GpH7-B3 variant Y300_16H/GpL16-k0 (antibody, human IgG1, kappa)
heavy 1: not shown
heavy 2: not shown
light: B1 light
notes: Alteration in one H chain only; also called He Ab Y300_16H
B33: GpH7-A5/GpH7-B3 variant Y300_07I/GpL16-k0 (antibody, human IgG1, kappa)
heavy 1: not shown
heavy 2: not shown
light: B1 light
notes: Alteration in one H chain only; also called He Ab Y300_07I

Target: T3, FcγRIa (human, UniProt P12314 16-292)
T3 construct: extracellular domain; also called FcgRI; CD64
Assay: ratio of He/Con_1a to He/Con_2b (FcγRIa over FcγRIIb), SPR
Description: (§1) The heterodimerized antibodies He Abs in which one of the H chains was introduced with an alteration were assayed for their binding activities to each activating FcγR and inhibitory FcγR according to the method described in Example 4. […] The activating FcγRs in FIGS. 26, 27, 28, and 29 are FcγRIa, FcγRIIa (R), FcγRIIa (H), and FcγRIIIa, respectively.
(§2) Analysis of interaction between objective antibody and the FcγR was carried out using Biacore T100 (GE Healthcare). HBS-EP+ (GE Healthcare) was used as the running buffer, and the measurement temperature was set to 25° C. Chips produced by immobilizing the antigen peptide by the amine coupling method to a Series S Sencor Chip CM5 (GE Healthcare), or alternatively, chips produced by allowing preliminarily biotinylated antigen peptides to interact with and immobilize onto a Series S Sensor Chip SA (certified) (GE Healthcare) were used. Antibodies of interest were captured onto an antigen peptide-immobilized chip, and allowed to interact to each FcγR diluted with running buffer. To regenerate and repeatedly use the chip, the antibodies captured on the chip were washed off by reacting 10 mM glycine-HCl, pH 1.5.
T3 sequence (P12314 16-292): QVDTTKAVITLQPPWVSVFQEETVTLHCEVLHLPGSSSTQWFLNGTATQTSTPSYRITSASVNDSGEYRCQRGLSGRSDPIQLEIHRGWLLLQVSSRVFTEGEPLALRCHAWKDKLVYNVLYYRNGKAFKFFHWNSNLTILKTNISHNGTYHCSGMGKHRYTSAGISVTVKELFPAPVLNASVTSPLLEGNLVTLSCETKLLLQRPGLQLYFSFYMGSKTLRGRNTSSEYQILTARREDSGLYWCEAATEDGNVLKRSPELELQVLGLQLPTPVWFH

He_1a/2b (Ia/IIb)	Binder
10.5	B1
8.51	B2

Target: T1, FcγRIIa R
Assay: SPR (Biacore); He/Con_2aR divided by He/Con_2b (FcγRIIa R over FcγRIIb)

He_2aR/2b (IIaR/IIb)	Binder
1.27 ratio	B3
1.23 ratio	B4
1.29 ratio	B5
1.3 ratio	B6
1.34 ratio	B7
1.52 ratio	B8
2.15 ratio	B9
1.3 ratio	B10
1.28 ratio	B11
1.64 ratio	B12
1.32 ratio	B13
2.02 ratio	B14
1.31 ratio	B15
2.14 ratio	B16
1.51 ratio	B17
1.29 ratio	B18
1.39 ratio	B19
1.31 ratio	B20
1.32 ratio	B21
1.3 ratio	B22
1.28 ratio	B23
1.21 ratio	B24
1.25 ratio	B25
1.61 ratio	B26
2.26 ratio	B27
1.33 ratio	B28
1.81 ratio	B29
1.32 ratio	B30
1.35 ratio	B31

Target: T4, FcγRIa (human, UniProt P12314 16-292)
T4 construct: extracellular domain; also called FcgRI; FcgRIa; not shown: His tag attached to the C terminus
Assay: SPR (Biacore), relative binding; control HeCon Ab GpH7-A5/GpH7-B3/GpL16-k0
T4 sequence (P12314 16-292): as above

He/Con_1a	Binder
111 % of control (=100)	B32
108 % of control (=100)	B33

Target: T2, FcγRIIb
Assay: SPR (Biacore), captured antibody, FcγR as analyte; relative binding, control GpH7-A5/GpH7-B3/GpL16-k0 = 100
Description: as §1, §2

He/Con_2b	Binder
51.5 control = 100	B3
65.7 control = 100	B4
45 control = 100	B5
45.1 control = 100	B6
43.9 control = 100	B7
38.2 control = 100	B8
15 control = 100	B9
42.5 control = 100	B10
59.5 control = 100	B11
33.4 control = 100	B12
44.8 control = 100	B13
6.1 control = 100	B14
44.3 control = 100	B15
17.8 control = 100	B16
38.3 control = 100	B17
44.7 control = 100	B18
25.2 control = 100	B19
49.9 control = 100	B20
38.5 control = 100	B21
50.6 control = 100	B22
47.8 control = 100	B23
83 control = 100	B24
67.8 control = 100	B25
16 control = 100	B26
14.9 control = 100	B27
42.9 control = 100	B28
11.3 control = 100	B29
46.7 control = 100	B30
52.3 control = 100	B31

Target: T1, FcγRIIa R
Assay: as above
Description: as §1, §2

He/Con_2aR	Binder
65.3 control = 100	B3
81 control = 100	B4
58.2 control = 100	B5
58.8 control = 100	B6
58.8 control = 100	B7
58.2 control = 100	B8
32.2 control = 100	B9
55.5 control = 100	B10
75.9 control = 100	B11
54.8 control = 100	B12
59.2 control = 100	B13
12.4 control = 100	B14
57.8 control = 100	B15
38.1 control = 100	B16
58 control = 100	B17
57.6 control = 100	B18
35 control = 100	B19
65.3 control = 100	B20
50.7 control = 100	B21
66 control = 100	B22
61.2 control = 100	B23
100 control = 100	B24
85 control = 100	B25
25.8 control = 100	B26
33.7 control = 100	B27
57.2 control = 100	B28
20.5 control = 100	B29
61.7 control = 100	B30
70.7 control = 100	B31

Target: T3, FcγRIa
Assay: SPR (Biacore), captured antibody, soluble FcγR; relative to GpH7-A5/GpH7-B3/GpL16-k0 = 100
Description: as §1, §2

He/Con_1a	Binder
79.2 % of control	B1
78.6 % of control	B2
